The target in assay [1] is recombinant mouse VEGF (493-MV, R&D systems, USA) (mouse) (UniProt Q00731). The assay is described as follows: ELISA, Ab 0.10 nM.
For assay [2] the target is unchanged. The assay is described as follows: ELISA, Ab 1.56 nM.
The target is the same in assay [3]. The assay is described as follows: ELISA, Ab 3.13 nM. In general terms: ELISA stands for enzyme-linked immunosorbent assay.
Assay [4] shares this target. The assay is described as follows: ELISA, Ab 0.049 nM.
The target is the same in assay [5]. The assay is described as follows: ELISA, Ab 50 nM.
For assay [6] the target is unchanged. The assay is described as follows: ELISA, Ab 0.20 nM.
The target is the same in assay [7]. The assay is described as follows: ELISA, Ab 25 nM.
Assay [8] has the same target. The assay is described as follows: ELISA, Ab 0.78 nM.
Assay [9] shares this target. The assay is described as follows: ELISA, Ab 12.5 nM.
Assay [10] has the same target. The assay is described as follows: ELISA, Ab 0.39 nM.
Assay [11] shares this target. The assay is described as follows: ELISA, Ab 6.25 nM.
For assay [12], the target named is recombinant human VEGF (293-VE, R&D systems, USA) (human) (UniProt P15692). The assay is described as follows: ELISA, control IgG 50 nM.
Assay [13] addresses T1, recombinant mouse VEGF (493-MV, R&D systems, USA) (mouse) (UniProt Q00731).
T1 sequence (looked up): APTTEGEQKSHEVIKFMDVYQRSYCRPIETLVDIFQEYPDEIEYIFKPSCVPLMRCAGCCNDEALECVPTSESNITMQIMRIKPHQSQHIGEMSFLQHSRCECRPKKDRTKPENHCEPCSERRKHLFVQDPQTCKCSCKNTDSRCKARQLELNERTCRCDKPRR
The assay is described as follows: ELISA, control IgG 50 nM.

Turning to “Avastin™ (bevacizumab, Genetech), humanized anti-VEGF monoclonal antibody”, the OD490 in assay [1] stood at 0.147; in assay [2], 0.0455; in assay [3] it was 0.0489; in [4] it was 0.0687; in assay [5], 0.695; in assay [6], 0.0433. Also, the OD490 is 0.107 in assay [7]; 0.0438 in assay [8]; 0.104 in assay [9]; 0.0569 in assay [10]; 0.0424 in assay [11].

For normal human IgG (antibody), the OD490 in assay [12] worked out at 0.052; in assay [13], 0.0467.

The record behind these values is patent US20100129373A1.
